PMC4836650 (RNA, 2016)

Target: L7Ae (Pyrococcus furiosus, UniProt Q8U160 1-123)
Assay: SEC

B1: Nop5 (L148K, V223E) (natural protein)
chain: MKAFISENVRGIYAFDENGNLIEKRYFTDKPEKVLDQLLKGEITKDLEELLNSLKEKGYDEFVFEHPELSRRAKELGFSATTEFPNIAGERLRSNPEEFLGENWFEEYYKVGVALTRMRIQEQSGARDKMVIQAIEALDDVDKVINLKVARLREWYSLHFPELDELLPKHPQYVAFVKTVGHRDNINEEVLRELGLSEEKIKKILEAKEKTMGAWMDQTDIEEVRQLAEEIDRLYQLRKKLEDYIDRAMDDVAPNLKALVGAKLAARLISLAGGLRELAMMPSSTIQVLGAEKALFRHLRTGAKPPKHGVIYQYPAINRSPWWQRGKIARALAGKLAIAARVDYFSGEYIAEELKKELEARIREIKEKYPKPPKRKREERKGKKPWKKDKKKKKKKEKPRRR
B1: binds.
